# Results as given in paper PMC7982615, “Phase 1 study of telisotuzumab vedotin in Japanese patients with advanced solid tumors” (Cancer Medicine, 2021).
# Entries after “also recorded” stand apart in the source; their conditions may differ.
# Assay: Safety and tolerability (TEAEs, DLTs, AESIs) in phase 1 dose-escalation study of teliso‐v
# Type: in vivo, human
# Conditions: for Dose‐limiting toxicity (DLT) events: 2.4 and 2.7 mg/kg IV Q3W, dose escalation
# Method: This phase 1, open‐label, dose‐escalation clinical trial was conducted at two sites in Japan (NCT03311477). Enrollment began on November 6, 2017, and the trial was completed on March 4, 2019.
# Escalation into the higher dose level proceeded if the first three evaluable patients in the lower dose level completed the first‐cycle (for at least 21 days) safety assessment without experiencing a dose‐limiting toxicity (DLT). DLT evaluations for dose escalation and determination of RP2D were carried out by investigators, study sponsor, and an independent safety monitor. […] No premedication was required. On the basis of confirmed availability of archival tumor tissue at enrollment, patients were retrospectively analyzed for c‐Met expression and MET amplification. c‐Met expression was determined by immunohistochemistry (IHC), and MET amplification was determined by fluorescence in situ hybridization or sequencing of plasma or tumor DNA.
# Safety assessments included treatment‐emergent adverse events (TEAEs) graded according to the National Cancer Institute Common Terminology Criteria for Adverse Events version 4.03. TEAEs, vital signs, physical examinations, electrocardiograms, laboratory tests, and ECOG performance status were monitored during the study. Any grade ≥3 study drug‐related nonhematologic toxicity was documented as a DLT, except as follows: grade 3 nausea or vomiting lasting ≤48 hours that was successfully managed with antiemetics; grade 3 diarrhea successfully managed with antidiarrheal; grade 3 constipation lasting ≤7 days; grade 3 acute infusion reaction that resolved to grade ≤1 within 24 hours after the end of dosing; grade 3 and 4 laboratory tests including but not limited to lactate dehydrogenase, alkaline phosphatase, and gamma‐glutamyl transferase that were considered nonclinically significant by the investigator; liver function test abnormalities; grade 3 and 4 electrolyte imbalance unless associated with clinical symptomatology despite supplementation; and grade 3 hyperglycemia that was manageable without hospitalization. The following hematologic toxicities were documented as a DLT: any grade 4 hematologic toxicity (excluding febrile neutropenia or leukopenia lasting for ≤7 days, or lymphopenia); anemia requiring red blood cell transfusion; thrombocytopenia requiring platelet transfusion; grade 3 thrombocytopenia in the presence of grade ≥2 bleeding; and grade ≥3 febrile neutropenia. Toxicity management criteria are described in the Supplementary appendix.
# All data were summarized and tabulated by dose cohort. Categoric data were summarized in terms of frequency counts and percentages. Continuous data were summarized using descriptive statistics, including number of observations, mean, standard deviation, median, minimum, and maximum. No formal statistical analysis was performed for efficacy variables, which were all exploratory in nature. ORR was defined as the proportion of patients with a confirmed partial response (PR) or complete response (CR). Duration of response was defined as time from a patient's initial objective response to the first date of disease progression (PD) or death. The overall disease control rate was defined as the proportion of patients with CR, PR, or stable disease (SD). […] PFS was estimated using the Kaplan–Meier method. Efficacy analyses are presented with two‐sided exact 95% binomial CI.
# [1] = total, N = 9, listed as teliso-v
# [2] = total, N = 9, listed as telisotuzumab vedotin
# [3] = total, N = 9, listed as teliso‐v
substance,measurement,setting,value
"Teliso‐v: antibody‐drug conjugate: anti–c‐Met humanized monoclonal antibody ABT‐700 coupled to monomethyl auristatin E through a valine‐citrulline linker, drug:antibody ratio approximately three",Dose‐limiting toxicity (DLT) events,,no DLTs were reported; also recorded: no DLTs observed
same,Dose‐limiting toxicity (DLT) events,listed as telisotuzumab vedotin,no dose‐limiting toxicity events were observed
same,Hematologic AEs (AESI),2.4‐mg/kg dose level,33%
same,Peripheral neuropathy events (AESI),2.4‐mg/kg dose level,three
same,Hematologic AEs (AESI),2.7‐mg/kg dose level,67%
same,Ocular AESIs,2.7‐mg/kg dose level,three
same,Peripheral neuropathy events (AESI),2.7‐mg/kg dose level,three
same,Frequency of corneal epithelium disorder,"Japanese patients, four of nine",44.4%
same,AEs leading to withdrawal of consent,N = 9,three
same,Dry eye (ocular AESI),N = 9,one
same,Keratitis (ocular AESI),N = 9,one
same,Patients with at least one TEAE,N = 9,nine
same,Patients with at least one TEAE related to teliso‐v,N = 9,nine
same,Patients with serious AEs,N = 9,two
same,Punctate keratitis (ocular AESI),N = 9,two
same,"Serious AEs, number of events",N = 9,Three
same,Visual impairment (ocular AESI),N = 9,one
same,Maximum tolerated dose,"doses up to 2.7 mg/kg Q3W, 3 + 3 design",not reached
same,Deaths,either dose level,No deaths were reported
same,Recommended phase 2 dose (RP2D),"every 3 weeks, Japanese patients",2.7 mg/kg
same,Ocular AESIs,"grade 1 or 2, total, N = 9",44%
same,TEAE leading to treatment discontinuation,"grade 2, teliso‐v related serious AE, 2.7‐mg/kg dose level",gait disturbance
same,Peripheral neuropathy events (AESI),"grades 1 and 2, total, N = 9",67%
same,"Alanine aminotransferase increased, TEAE regardless of relationship","total, N = 9",2 (22) n (%)
same,"Alanine aminotransferase increased, TEAE related to teliso‐v","total, N = 9",2 (22) n (%)
same,"Alopecia, TEAE regardless of relationship","total, N = 9",2 (22) n (%)
same,"Alopecia, TEAE related to teliso‐v","total, N = 9",2 (22) n (%)
same,"Anemia, TEAE regardless of relationship","total, N = 9",2 (22) n (%)
same,"Aspartate aminotransferase increased, TEAE regardless of relationship","total, N = 9",2 (22) n (%)
same,"Aspartate aminotransferase increased, TEAE related to teliso‐v","total, N = 9",2 (22) n (%)
same,"Back pain, TEAE regardless of relationship","total, N = 9",2 (22) n (%)
same,"Constipation, TEAE regardless of relationship","total, N = 9",2 (22) n (%)
same,"Decreased weight, TEAE regardless of relationship","total, N = 9",33%
same,"Decreased white blood cell count, TEAE regardless of relationship","total, N = 9",33%
same,"Decreased white blood cell count, TEAE related to teliso‐v","total, N = 9",33%
same,"Diarrhea, TEAE regardless of relationship","total, N = 9",2 (22) n (%)
same,"Fatigue, TEAE regardless of relationship","total, N = 9",2 (22) n (%)
same,"Fatigue, TEAE related to teliso‐v","total, N = 9",2 (22) n (%)
same,"Hypoalbuminemia, TEAE regardless of relationship","total, N = 9",2 (22) n (%)
same,"Malaise, TEAE regardless of relationship","total, N = 9",2 (22) n (%)
same,"Malaise, TEAE related to teliso‐v","total, N = 9",2 (22) n (%)
same,"Neutrophil count decreased, TEAE regardless of relationship","total, N = 9",2 (22) n (%)
same,"Neutrophil count decreased, TEAE related to teliso‐v","total, N = 9",2 (22) n (%)
same,"Peripheral neuropathy, TEAE regardless of relationship","total, N = 9",2 (22) n (%)
same,"Peripheral neuropathy, TEAE related to teliso‐v","total, N = 9",2 (22) n (%)
same,"Punctate keratitis, TEAE regardless of relationship","total, N = 9",2 (22) n (%)
same,"Punctate keratitis, TEAE related to teliso‐v","total, N = 9",2 (22) n (%)
same,"Weight decreased, TEAE regardless of relationship","total, N = 9",3 (33) n (%)
same,"Weight decreased, TEAE related to teliso‐v","total, N = 9",2 (22) n (%)
same,"White blood cell count decreased, TEAE regardless of relationship","total, N = 9",3 (33) n (%)
same,"White blood cell count decreased, TEAE related to teliso‐v","total, N = 9",3 (33) n (%)
same,"Decreased appetite, TEAE regardless of relationship",[1],3 (33) n (%)
same,"Nausea, TEAE regardless of relationship",[1],3 (33) n (%)
same,"Peripheral sensory neuropathy, TEAE regardless of relationship",[1],4 (44) n (%)
same,"Decreased appetite, TEAE related to teliso‐v",[2],33%
same,"Nausea, TEAE related to teliso‐v",[2],33%
same,"Peripheral sensory neuropathy, TEAE related to teliso‐v",[2],44%
same,"Decreased appetite, TEAE regardless of relationship",[3],33%
same,"Decreased appetite, TEAE related to teliso‐v",[3],3 (33) n (%)
same,"Nausea, TEAE regardless of relationship",[3],33%
same,"Nausea, TEAE related to teliso‐v",[3],3 (33) n (%)
same,"Peripheral sensory neuropathy, TEAE regardless of relationship",[3],44%
same,"Peripheral sensory neuropathy, TEAE related to teliso‐v",[3],4 (44) n (%)
